From patent US20220380464A1 (Genmab, published 2022)

B1: UniTE-huCD3-H1L1-LT41K (antibody, V domains shown)
VH: EVKLVESGGGLVQPGGSLRLSCAASGFTFNTYAMNWVRQAPGKGLEWVARIRSKYNNYATYYADSVKDRFTISRDDSKSSLYLQMNNLKTEDTAMYYCVRHGNFGNSYVSWFAYWGQGTLVTVSS
VL: not shown
notes: also called UniTE-huCD3-H1L1-LT41K (WT); UniTE-huCD3-H1L1-T41K
B2: UniTE-huCD3-H1L1-H101K-LT41K (antibody, V domains shown)
VH: EVKLVESGGGLVQPGGSLRLSCAASGFTFNTYAMNWVRQAPGKGLEWVARIRSKYNNYATYYADSVKDRFTISRDDSKSSLYLQMNNLKTEDTAMYYCVRKGNFGNSYVSWFAYWGQGTLVTVSS
VL: not shown
notes: Monovalent UniBody-TE format
B3: UniTE-huCD3-H1L1-T31A-LT41K (antibody, V domains shown)
VH: EVKLVESGGGLVQPGGSLRLSCAASGFTFNAYAMNWVRQAPGKGLEWVARIRSKYNNYATYYADSVKDRFTISRDDSKSSLYLQMNNLKTEDTAMYYCVRHGNFGNSYVSWFAYWGQGTLVTVSS
VL: not shown
notes: Monovalent UniBody-TE format
B4: UniTE-huCD3-H1L1-Y32A-LT41K (antibody, V domains shown)
VH: EVKLVESGGGLVQPGGSLRLSCAASGFTFNTAAMNWVRQAPGKGLEWVARIRSKYNNYATYYADSVKDRFTISRDDSKSSLYLQMNNLKTEDTAMYYCVRHGNFGNSYVSWFAYWGQGTLVTVSS
VL: not shown
notes: Monovalent UniBody-TE format
B5: UniTE-huCD3-H1L1-Y114R-LT41K (antibody, V domains shown)
VH: EVKLVESGGGLVQPGGSLRLSCAASGFTFNTYAMNWVRQAPGKGLEWVARIRSKYNNYATYYADSVKDRFTISRDDSKSSLYLQMNNLKTEDTAMYYCVRHGNFGNSYVSWFARWGQGTLVTVSS
VL: not shown
notes: Monovalent UniBody-TE format
B6: IgG1-huCD3-G105P-FEAL (antibody, V domains shown)
VH: EVKLVESGGGLVQPGGSLRLSCAASGFTFNTYAMNWVRQAPGKGLEWVARIRSKYNNYATYYADSVKDRFTISRDDSKSSLYLQMNNLKTEDTAMYYCVRHGNFPNSYVSWFAYWGQGTLVTVSS
VL: not shown
B7: IgG1-huCD3-H101K-FEAL (antibody, V domains shown)
VH: EVKLVESGGGLVQPGGSLRLSCAASGFTFNTYAMNWVRQAPGKGLEWVARIRSKYNNYATYYADSVKDRFTISRDDSKSSLYLQMNNLKTEDTAMYYCVRKGNFGNSYVSWFAYWGQGTLVTVSS
VL: not shown
B8: IgG1-huCD3-H101L-FEAL (antibody, V domains shown)
VH: EVKLVESGGGLVQPGGSLRLSCAASGFTFNTYAMNWVRQAPGKGLEWVARIRSKYNNYATYYADSVKDRFTISRDDSKSSLYLQMNNLKTEDTAMYYCVRLGNFGNSYVSWFAYWGQGTLVTVSS
VL: not shown
B9: IgG1-huCD3-H101N-FEAL (antibody, V domains shown)
VH: EVKLVESGGGLVQPGGSLRLSCAASGFTFNTYAMNWVRQAPGKGLEWVARIRSKYNNYATYYADSVKDRFTISRDDSKSSLYLQMNNLKTEDTAMYYCVRNGNFGNSYVSWFAYWGQGTLVTVSS
VL: not shown
B10: IgG1-huCD3-N57E-FEAL (antibody, V domains shown)
VH: EVKLVESGGGLVQPGGSLRLSCAASGFTFNTYAMNWVRQAPGKGLEWVARIRSKYNEYATYYADSVKDRFTISRDDSKSSLYLQMNNLKTEDTAMYYCVRHGNFGNSYVSWFAYWGQGTLVTVSS
VL: not shown
B11: IgG1-huCD3-S110A-FEAL (antibody, V domains shown)
VH: EVKLVESGGGLVQPGGSLRLSCAASGFTFNTYAMNWVRQAPGKGLEWVARIRSKYNNYATYYADSVKDRFTISRDDSKSSLYLQMNNLKTEDTAMYYCVRHGNFGNSYVAWFAYWGQGTLVTVSS
VL: not shown
B12: IgG1-huCD3-S110G-FEAL (antibody, V domains shown)
VH: EVKLVESGGGLVQPGGSLRLSCAASGFTFNTYAMNWVRQAPGKGLEWVARIRSKYNNYATYYADSVKDRFTISRDDSKSSLYLQMNNLKTEDTAMYYCVRHGNFGNSYVGWFAYWGQGTLVTVSS
VL: not shown
B13: IgG1-huCD3-T31M-FEAL (antibody, V domains shown)
VH: EVKLVESGGGLVQPGGSLRLSCAASGFTFNMYAMNWVRQAPGKGLEWVARIRSKYNNYATYYADSVKDRFTISRDDSKSSLYLQMNNLKTEDTAMYYCVRHGNFGNSYVSWFAYWGQGTLVTVSS
VL: not shown
B14: IgG1-huCD3-T31P-FEAL (antibody, V domains shown)
VH: EVKLVESGGGLVQPGGSLRLSCAASGFTFNPYAMNWVRQAPGKGLEWVARIRSKYNNYATYYADSVKDRFTISRDDSKSSLYLQMNNLKTEDTAMYYCVRHGNFGNSYVSWFAYWGQGTLVTVSS
VL: not shown
B15: IgG1-huCD3-Y32A-FEAL (antibody, V domains shown)
VH: EVKLVESGGGLVQPGGSLRLSCAASGFTFNTAAMNWVRQAPGKGLEWVARIRSKYNNYATYYADSVKDRFTISRDDSKSSLYLQMNNLKTEDTAMYYCVRHGNFGNSYVSWFAYWGQGTLVTVSS
VL: not shown
B16: IgG1-huCD3-Y114M-FEAL (antibody, V domains shown)
VH: EVKLVESGGGLVQPGGSLRLSCAASGFTFNTYAMNWVRQAPGKGLEWVARIRSKYNNYATYYADSVKDRFTISRDDSKSSLYLQMNNLKTEDTAMYYCVRHGNFGNSYVSWFAMWGQGTLVTVSS
VL: not shown
B17: IgG1-huCD3-Y114R-FEAL (antibody, V domains shown)
VH: EVKLVESGGGLVQPGGSLRLSCAASGFTFNTYAMNWVRQAPGKGLEWVARIRSKYNNYATYYADSVKDRFTISRDDSKSSLYLQMNNLKTEDTAMYYCVRHGNFGNSYVSWFARWGQGTLVTVSS
VL: not shown
B18: IgG1-huCD3-Y114V-FEAL (antibody, V domains shown)
VH: EVKLVESGGGLVQPGGSLRLSCAASGFTFNTYAMNWVRQAPGKGLEWVARIRSKYNNYATYYADSVKDRFTISRDDSKSSLYLQMNNLKTEDTAMYYCVRHGNFGNSYVSWFAVWGQGTLVTVSS
VL: not shown
B19: UniTE-huCD3-H1L1-G105P-LT41K (antibody, V domains shown)
VH: EVKLVESGGGLVQPGGSLRLSCAASGFTFNTYAMNWVRQAPGKGLEWVARIRSKYNNYATYYADSVKDRFTISRDDSKSSLYLQMNNLKTEDTAMYYCVRHGNFPNSYVSWFAYWGQGTLVTVSS
VL: not shown
notes: Monovalent UniBody-TE format
B20: UniTE-huCD3-H1L1-H101G-LT41K (antibody, V domains shown)
VH: EVKLVESGGGLVQPGGSLRLSCAASGFTFNTYAMNWVRQAPGKGLEWVARIRSKYNNYATYYADSVKDRFTISRDDSKSSLYLQMNNLKTEDTAMYYCVRGGNFGNSYVSWFAYWGQGTLVTVSS
VL: not shown
notes: Monovalent UniBody-TE format
B21: UniTE-huCD3-H1L1-H101I-LT41K (antibody, V domains shown)
VH: EVKLVESGGGLVQPGGSLRLSCAASGFTFNTYAMNWVRQAPGKGLEWVARIRSKYNNYATYYADSVKDRFTISRDDSKSSLYLQMNNLKTEDTAMYYCVRIGNFGNSYVSWFAYWGQGTLVTVSS
VL: not shown
notes: Monovalent UniBody-TE format
B22: UniTE-huCD3-H1L1-H101N-LT41K (antibody, V domains shown)
VH: EVKLVESGGGLVQPGGSLRLSCAASGFTFNTYAMNWVRQAPGKGLEWVARIRSKYNNYATYYADSVKDRFTISRDDSKSSLYLQMNNLKTEDTAMYYCVRNGNFGNSYVSWFAYWGQGTLVTVSS
VL: not shown
notes: Monovalent UniBody-TE format
B23: UniTE-huCD3-H1L1-N57E-LT41K (antibody, V domains shown)
VH: EVKLVESGGGLVQPGGSLRLSCAASGFTFNTYAMNWVRQAPGKGLEWVARIRSKYNEYATYYADSVKDRFTISRDDSKSSLYLQMNNLKTEDTAMYYCVRHGNFGNSYVSWFAYWGQGTLVTVSS
VL: not shown
notes: Monovalent UniBody-TE format
B24: UniTE-huCD3-H1L1-S110A-LT41K (antibody, V domains shown)
VH: EVKLVESGGGLVQPGGSLRLSCAASGFTFNTYAMNWVRQAPGKGLEWVARIRSKYNNYATYYADSVKDRFTISRDDSKSSLYLQMNNLKTEDTAMYYCVRHGNFGNSYVAWFAYWGQGTLVTVSS
VL: not shown
notes: Monovalent UniBody-TE format
B25: UniTE-huCD3-H1L1-S110G-LT41K (antibody, V domains shown)
VH: EVKLVESGGGLVQPGGSLRLSCAASGFTFNTYAMNWVRQAPGKGLEWVARIRSKYNNYATYYADSVKDRFTISRDDSKSSLYLQMNNLKTEDTAMYYCVRHGNFGNSYVGWFAYWGQGTLVTVSS
VL: not shown
notes: Monovalent UniBody-TE format
B26: UniTE-huCD3-H1L1-T31M-LT41K (antibody, V domains shown)
VH: EVKLVESGGGLVQPGGSLRLSCAASGFTFNMYAMNWVRQAPGKGLEWVARIRSKYNNYATYYADSVKDRFTISRDDSKSSLYLQMNNLKTEDTAMYYCVRHGNFGNSYVSWFAYWGQGTLVTVSS
VL: not shown
notes: Monovalent UniBody-TE format
B27: UniTE-huCD3-H1L1-T31P-LT41K (antibody, V domains shown)
VH: EVKLVESGGGLVQPGGSLRLSCAASGFTFNPYAMNWVRQAPGKGLEWVARIRSKYNNYATYYADSVKDRFTISRDDSKSSLYLQMNNLKTEDTAMYYCVRHGNFGNSYVSWFAYWGQGTLVTVSS
VL: not shown
notes: Monovalent UniBody-TE format

How the values were obtained:
[1] = target: T1, CD3ε27-GSKa (human); assay: BLI (Octet HTX), UniTE antibody on anti-human Fc sensors, CD3ε27-GSKa in solution, 1:1 fit
T1 construct: also called Mature CD3ε27-GSKa
T1 sequence (chain, as listed by the source limits assumed): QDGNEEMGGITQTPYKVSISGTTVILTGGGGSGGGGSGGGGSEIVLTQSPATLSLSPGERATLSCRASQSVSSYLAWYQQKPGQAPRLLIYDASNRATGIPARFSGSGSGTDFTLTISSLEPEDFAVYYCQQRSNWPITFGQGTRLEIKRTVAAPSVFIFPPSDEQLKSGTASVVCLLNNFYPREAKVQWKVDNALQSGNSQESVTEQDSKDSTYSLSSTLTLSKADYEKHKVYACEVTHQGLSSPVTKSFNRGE
Experimental: (§1) Experiments were carried out while shaking at 1000 rpm and at 30° C.

[2] = target: T1, CD3ε27-GSKa; assay: BLI (Octet), summary table repeating Table 4
Experimental: as §1

[3] = target: T2, human CD3 on human T cells (human, UniProt P07766 23-207); assay: flow cytometry on isolated human T cells, PE anti-human IgG detection
T2 construct: Natural CD3/TCR complex on T cells isolated from human donor buffy coats; The other chains of the complex (CD3γ, CD3δ, CD3ζ, polyclonal TCR) are also present on the cells
T2 sequence (P07766 23-207 limits assumed): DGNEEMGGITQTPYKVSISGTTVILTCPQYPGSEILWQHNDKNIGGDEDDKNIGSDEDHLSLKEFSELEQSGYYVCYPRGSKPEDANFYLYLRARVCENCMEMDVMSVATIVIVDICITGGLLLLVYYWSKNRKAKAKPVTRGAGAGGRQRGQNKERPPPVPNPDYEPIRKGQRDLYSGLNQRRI
Experimental: T cells were Isolated from a buffy coat fraction of anti-coagulated human donor blood samples and resuspended in PBS/0.1% BSA/0.02% azide at 1.8×10E6 cells/mL. 50 μL of T cell suspension and 50 μL of the antibody dilutions were combined in a 96 well plate on ice, Incubated for 30 min at 4° C. and washed twice with PBS/0.1% BSA/0.02% azide. […] The cells were resuspended in 120 μL PBS/0.1% BSA/0.02% azide and PE geometric Mean Fluorescence Intensity was measured. Binding curves were analyzed using non-linear regression (sigmoidal dose-response with variable slope) using GraphPad Prism V5.04 software (GraphPad Software, San Diego, Calif., USA) and apparent affinity (KD) was derived from the concentration at half-maximal binding.

[4] = target: T1, CD3ε27-GSKa; assay: BLI (Octet HTX), IgG on anti-human Fc sensors, CD3ε27-GSKa 1000-1.4 nM in solution, 1:1 fit, average
Experimental: as §1
Data was analyzed with ForteBio Data Analysis Software v8.1, using the 1:1 model and a global full fit with 1000 s association time and 100 s dissociation time. […] Data traces with a response <0.05 nm were excluded from analysis.

Binder | Ka [1] [M⁻¹] | Kd [1] [nM] | Kd [2] [nM] | Tcell binding average at 5000ng/ml (Geometric MFI) [3] [Geometric MFI] | Kd [4] [nM] | pKD [4]
B1 | 3e+07 | 34 | 34 | 13200 |  | 
B2 |  |  |  | 1320 |  | 
B3 |  |  |  | 10200 |  | 
B4 |  |  |  | 719 |  | 
B5 |  |  |  | 6200 |  | 
B6 |  |  |  |  | 5 | 8.3
B7 |  |  |  |  | 120 | 6.9
B8 |  |  |  |  | 107 | 7
B9 |  |  |  |  | 45 | 7.3
B10 |  |  |  |  | 91 | 7
B11 |  |  |  |  | 72 | 7.1
B12 |  |  |  |  | 153 | 6.8
B13 |  |  |  |  | 99 | 7
B14 |  |  |  |  | 42 | 7.4
B15 |  |  |  |  | 105 | 7
B16 |  |  |  |  | 42 | 7.4
B17 |  |  |  |  | 46 | 7.3
B18 |  |  |  |  | 29 | 7.5
B19 | 2.8e+07 | 35 | 35 | 10500 |  | 
B20 | 1e+06 | 970 | 970 | 492 |  | 
B21 | 4.6e+06 | 220 | 220 |  |  | 
B22 | 5.1e+06 | 200 | 200 | 848 |  | 
B23 | 4.1e+07 | 24 | 24 | 8490 |  | 
B24 | 3.1e+06 | 320 | 320 | 1660 |  | 
B25 | 1.6e+07 | 61 | 61 | 949 |  | 
B26 | 5.1e+06 | 200 | 200 | 1920 |  | 
B27 | 2e+07 | 49 | 49 | 4290 |  | 
